Measured values from patent US20240066131A1 (Protagonist Therapeutics, Inc., priority 2020, published 2024).
Values belong to the binder of their own block, whether it stands above or below them. Starred links: 1 amine or outer side, 2 acyl side, 3 side chain; linkers in the order of their positions; H or OH if unused. Non-standard residues stand in square brackets, D forms with d. Groups on a side chain read outwards from the residue. *: point of attachment. ButanoicP = (R)-4-(pyrrolidin-2-yl)butanoic acid, O=C(CCC[C@@H]1CCCN1[*:1])[*:2]; C18 diacid = O=C(O)CCCCCCCCCCCCCCCCC(=O)*; Dip = N[C@H](C(=O)O)C(c1ccccc1)c1ccccc1; Palmitoyl = CCCCCCCCCCCCCCCC(=O)*; NMeF = CN[C@@H](Cc1ccccc1)C(=O)O; β3hF = N[C@H](CC(=O)O)Cc1ccccc1; Isovaleryl = CC(C)CC(=O)*; (Me)Leu = methyl-leucine; AEEA = NCCOCCOCC(=O)O; Ahx = NCCCCCC(=O)O

Biological target: T1, human ferroportin (SLC40A1) fused in frame with GFP, stably expressed in HEK293 cells (human, UniProt Q9NP59 1-571)
T1 sequence (looked up): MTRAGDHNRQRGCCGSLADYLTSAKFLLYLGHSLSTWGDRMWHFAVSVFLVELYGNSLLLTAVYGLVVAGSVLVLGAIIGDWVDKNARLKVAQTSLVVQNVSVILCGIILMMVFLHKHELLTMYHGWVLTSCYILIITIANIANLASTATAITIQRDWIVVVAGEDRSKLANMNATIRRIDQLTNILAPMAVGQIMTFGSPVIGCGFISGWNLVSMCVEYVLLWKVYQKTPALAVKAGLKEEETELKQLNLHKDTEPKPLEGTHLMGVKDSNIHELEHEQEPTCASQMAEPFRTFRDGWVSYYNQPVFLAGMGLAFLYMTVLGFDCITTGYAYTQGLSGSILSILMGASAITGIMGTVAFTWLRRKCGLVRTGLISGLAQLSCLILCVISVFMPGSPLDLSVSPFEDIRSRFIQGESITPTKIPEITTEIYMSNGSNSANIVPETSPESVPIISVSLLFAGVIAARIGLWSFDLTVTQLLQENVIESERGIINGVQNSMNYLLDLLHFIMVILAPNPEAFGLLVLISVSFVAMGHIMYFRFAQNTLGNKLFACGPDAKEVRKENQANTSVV
Assay: cell-based or functional assay

FPN EC50: 8410 nM
Binder: XETHXPX (N-term Isovaleric Acid; Dpa4; Lys(Ac)6; C-term NH2) [Isovaleric Acid-E-T-H-[Dpa]-P-[Lys(Ac)]-NH2]

FPN EC50: 1040 nM
B2: Isovaleric Acid-E-T-H-[Dpa]-P-A-I-[Lys(Ac)]-NH2 (peptide)
peptide: Isovaleryl-ETH[Dip]PAIK(Ac)-NH2
SMILES: CC[C@H](C)[C@H](NC(=O)[C@H](C)NC(=O)[C@@H]1CCCN1C(=O)[C@@H](NC(=O)[C@H](Cc1c[nH]cn1)NC(=O)[C@@H](NC(=O)[C@H](CCC(=O)O)NC(=O)CC(C)C)[C@@H](C)O)C(c1ccccc1)c1ccccc1)C(=O)N[C@@H](CCCCNC(C)=O)C(N)=O

FPN EC50: 508 nM
Binder: Isovaleryl-LTH[Dip]PAIK([Ahx-Palmitoyl])[(Me)Leu]-NH2 [Isovaleric Acid-L-T-H-[Dpa]-P-A-I-[Lys(Ahx_Palm)]-[(Me)Leu]-NH2]

FPN EC50: 71.2 nM
B8: Isovaleric Acid-E-T-H-[Dpa]-[ButanoicP]-[bhPhe]-[Lys(Ahx_Palm)]-NH2 (peptide)
peptide: Isovaleryl-ETH[Dip][ButanoicP][β3hF]K([Ahx-Palmitoyl])-NH2
SMILES: CCCCCCCCCCCCCCCC(=O)NCCCCCC(=O)NCCCC[C@H](NC(=O)C[C@H](Cc1ccccc1)NC(=O)CCC[C@@H]1CCCN1C(=O)[C@@H](NC(=O)[C@H](Cc1c[nH]cn1)NC(=O)[C@@H](NC(=O)[C@H](CCC(=O)O)NC(=O)CC(C)C)[C@@H](C)O)C(c1ccccc1)c1ccccc1)C(N)=O

FPN EC50: 814 nM
Binder: Isovaleryl-ETH[Dip]PAI[dK]K(Ac)-NH2 [Isovaleric Acid-E-T-H-[Dpa]-P-A-I-[(D)Lys]-[Lys(Ac)]-NH2]

FPN EC50: 287 nM
Binder: Isovaleryl-LTH[Dip]PLIK([Ahx-Palmitoyl])[(Me)Leu]-NH2 [Isovaleric Acid-L-T-H-[Dpa]-P-L-I-[Lys(Ahx_Palm)]-[(Me)Leu]-NH2]

Further lines, the binder ahead of its results:

B1: Isovaleric Acid-E-T-H-[Dpa]-P-I-[(D)Lys]-[bhPhe]-[Lys(Ahx_Palm)]-NH2 (peptide)
peptide: Isovaleryl-ETH[Dip]PI[dK][β3hF]K([Ahx-Palmitoyl])-NH2
SMILES: CCCCCCCCCCCCCCCC(=O)NCCCCCC(=O)NCCCC[C@H](NC(=O)C[C@H](Cc1ccccc1)NC(=O)[C@@H](CCCCN)NC(=O)[C@@H](NC(=O)[C@@H]1CCCN1C(=O)[C@@H](NC(=O)[C@H](Cc1c[nH]cn1)NC(=O)[C@@H](NC(=O)[C@H](CCC(=O)O)NC(=O)CC(C)C)[C@@H](C)O)C(c1ccccc1)c1ccccc1)[C@@H](C)CC)C(N)=O
FPN EC50: 22.9 nM

Binder: Isovaleryl-ETH[Dip]PAIK([AEEA-AEEA-Ahx-C18 diacid])-NH2 [Isovaleric Acid-E-T-H-[Dpa]-P-A-I-[Lys(1Peg2_1Peg2_Ahx_C18_Diacid)]-NH2]
FPN EC50: 593 nM

Binder: Isovaleryl-LTH[Dip]P[(Me)Leu]IK([Ahx-Palmitoyl])L-NH2 [Isovaleric Acid-L-T-H-[Dpa]-P-[(Me)Leu]-I-[Lys(Ahx_Palm)]-L-NH2]
FPN EC50: 2760 nM

Binder: Isovaleryl-LTH[Dip]PAIK([AEEA-AEEA-Ahx-C18 diacid])[β3hF][dK]-NH2 [Isovaleric Acid-L-T-H-[Dpa]-P-A-I-[Lys(1PEG2_1PEG2_Ahx_C18_Diacid)]-[bhPhe]-[(D)Lys]-NH2]
FPN EC50: 65.7 nM

B3: Isovaleric Acid-L-T-H-[Dpa]-P-L-I-[Lys(Ahx_Palm)]-[(Me)Phe]-NH2 (peptide)
peptide: Isovaleryl-LTH[Dip]PLIK([Ahx-Palmitoyl])[NMeF]-NH2
SMILES: CCCCCCCCCCCCCCCC(=O)NCCCCCC(=O)NCCCC[C@H](NC(=O)[C@@H](NC(=O)[C@H](CC(C)C)NC(=O)[C@@H]1CCCN1C(=O)[C@@H](NC(=O)[C@H](Cc1c[nH]cn1)NC(=O)[C@@H](NC(=O)[C@H](CC(C)C)NC(=O)CC(C)C)[C@@H](C)O)C(c1ccccc1)c1ccccc1)[C@@H](C)CC)C(=O)N(C)[C@@H](Cc1ccccc1)C(N)=O
FPN EC50: 764 nM

B4: Isovaleric Acid-E-T-H-[Dpa]-P-A-[Lys(Ac)]-NH2 (peptide)
peptide: Isovaleryl-ETH[Dip]PAK(Ac)-NH2
SMILES: CC(=O)NCCCC[C@H](NC(=O)[C@H](C)NC(=O)[C@@H]1CCCN1C(=O)[C@@H](NC(=O)[C@H](Cc1c[nH]cn1)NC(=O)[C@@H](NC(=O)[C@H](CCC(=O)O)NC(=O)CC(C)C)[C@@H](C)O)C(c1ccccc1)c1ccccc1)C(N)=O
FPN EC50: 35700 nM

B5: Isovaleric Acid-E-T-H-[Dpa]-P-L-I-[(D)Lys]-[bhPhe]-[Lys(Ahx_Palm)]-[(D)Lys]-L-NH2 (peptide)
peptide: Isovaleryl-ETH[Dip]PLI[dK][β3hF]K([Ahx-Palmitoyl])[dK]L-NH2
SMILES: CCCCCCCCCCCCCCCC(=O)NCCCCCC(=O)NCCCC[C@H](NC(=O)C[C@H](Cc1ccccc1)NC(=O)[C@@H](CCCCN)NC(=O)[C@@H](NC(=O)[C@H](CC(C)C)NC(=O)[C@@H]1CCCN1C(=O)[C@@H](NC(=O)[C@H](Cc1c[nH]cn1)NC(=O)[C@@H](NC(=O)[C@H](CCC(=O)O)NC(=O)CC(C)C)[C@@H](C)O)C(c1ccccc1)c1ccccc1)[C@@H](C)CC)C(=O)N[C@H](CCCCN)C(=O)N[C@@H](CC(C)C)C(N)=O
FPN EC50: 4.5 nM

B6: Isovaleric Acid-R-T-H-[Dpa]-P-A-I-[Lys(1PEG2_1PEG2_Ahx_C18_Diacid)]-[bhPhe]-[(D)Lys]-NH2 (peptide)
peptide: Isovaleryl-RTH[Dip]PAIK([AEEA-AEEA-Ahx-C18 diacid])[β3hF][dK]-NH2
SMILES: CC[C@H](C)[C@H](NC(=O)[C@H](C)NC(=O)[C@@H]1CCCN1C(=O)[C@@H](NC(=O)[C@H](Cc1c[nH]cn1)NC(=O)[C@@H](NC(=O)[C@H](CCCNC(=N)N)NC(=O)CC(C)C)[C@@H](C)O)C(c1ccccc1)c1ccccc1)C(=O)N[C@@H](CCCCNC(=O)COCCOCCNC(=O)COCCOCCNC(=O)CCCCCNC(=O)CCCCCCCCCCCCCCCCC(=O)O)C(=O)N[C@H](CC(=O)N[C@H](CCCCN)C(N)=O)Cc1ccccc1
FPN EC50: 48.5 nM

B7: Isovaleric Acid-[(D)Arg]-T-H-[Dpa]-P-A-I-[Lys(1PEG2_1PEG2_Ahx_C18_Diacid)]-[bhPhe]-[(D)Lys]-NH2 (peptide)
peptide: Isovaleryl-[dR]TH[Dip]PAIK([AEEA-AEEA-Ahx-C18 diacid])[β3hF][dK]-NH2
SMILES: CC[C@H](C)[C@H](NC(=O)[C@H](C)NC(=O)[C@@H]1CCCN1C(=O)[C@@H](NC(=O)[C@H](Cc1c[nH]cn1)NC(=O)[C@@H](NC(=O)[C@@H](CCCNC(=N)N)NC(=O)CC(C)C)[C@@H](C)O)C(c1ccccc1)c1ccccc1)C(=O)N[C@@H](CCCCNC(=O)COCCOCCNC(=O)COCCOCCNC(=O)CCCCCNC(=O)CCCCCCCCCCCCCCCCC(=O)O)C(=O)N[C@H](CC(=O)N[C@H](CCCCN)C(N)=O)Cc1ccccc1
FPN EC50: 732 nM

Binder: Isovaleryl-ETH[Dip]PLIK([Ahx-Palmitoyl])[NMeF]-NH2 [Isovaleric Acid-E-T-H-[Dpa]-P-L-I-[Lys(Ahx_Palm)]-[(Me)Phe]-NH2]
FPN EC50: 27.2 nM

B9: Isovaleric Acid-L-T-H-[Dpa]-P-A-I-[Lys(Ahx_Palm)]-[(Me)Phe]-NH2 (peptide)
peptide: Isovaleryl-LTH[Dip]PAIK([Ahx-Palmitoyl])[NMeF]-NH2
SMILES: CCCCCCCCCCCCCCCC(=O)NCCCCCC(=O)NCCCC[C@H](NC(=O)[C@@H](NC(=O)[C@H](C)NC(=O)[C@@H]1CCCN1C(=O)[C@@H](NC(=O)[C@H](Cc1c[nH]cn1)NC(=O)[C@@H](NC(=O)[C@H](CC(C)C)NC(=O)CC(C)C)[C@@H](C)O)C(c1ccccc1)c1ccccc1)[C@@H](C)CC)C(=O)N(C)[C@@H](Cc1ccccc1)C(N)=O
FPN EC50: 1750 nM

Binder: Isovaleryl-LTH[Dip]P[(Me)Leu]IK([Ahx-Palmitoyl])[NMeF]-NH2 [Isovaleric Acid-L-T-H-[Dpa]-P-[(Me)Leu]-I-[Lys(Ahx_Palm)]-[(Me)Phe]-NH2]
FPN EC50: 2290 nM

B10: Isovaleric Acid-E-T-H-[Dpa]-P-A-I-[Lys(Ahx_Palm)]-[bhPhe]-NH2 (peptide)
peptide: Isovaleryl-ETH[Dip]PAIK([Ahx-Palmitoyl])[β3hF]-NH2
SMILES: CCCCCCCCCCCCCCCC(=O)NCCCCCC(=O)NCCCC[C@H](NC(=O)[C@@H](NC(=O)[C@H](C)NC(=O)[C@@H]1CCCN1C(=O)[C@@H](NC(=O)[C@H](Cc1c[nH]cn1)NC(=O)[C@@H](NC(=O)[C@H](CCC(=O)O)NC(=O)CC(C)C)[C@@H](C)O)C(c1ccccc1)c1ccccc1)[C@@H](C)CC)C(=O)N[C@H](CC(N)=O)Cc1ccccc1
FPN EC50: 31.9 nM
